Consider 7 molecules from patent publication US20100260765A1 (AstraZeneca / MedImmune, published 2010).

Assay [1] has as its target KDR endogenously expressed on human umbilical vein endothelial cells (HUVEC) (human, UniProt P35968 20-1356). The assay can be described thus: cell-based or functional assay.
For assay [2], the target named is T1, soluble KDR extracellular domain (ECD) (Calbiochem) (human, UniProt P35968 20-764).
T1 construct: extracellular domain; Bought protein; also called KDR-ECD; VEGF Receptor 2 D1-7, Cat. #676490
Description: High Antigen ELISA, KDR coat 500 ng/mL, supernatant 1:25. On the procedure: (§1) ELISA plates were coated with a greater amount of KDR (at 500 ng/mL) in comparison with the Limited Antigen Quantitation assay described below. Sample containing antibody (Ab) was titrated on the KDR-coated ELISA plates and was incubated overnight at 4° C. to allow Ab binding to approach equilibrium. Titration of Ab in sample covered a dilution range of 1:25 to 1:18,225. A standard curve of KDR-specific antibody of known concentration was used to define the linear range of the assay. Data within the linear range were used to derive the relative concentration of KDR-specific Ab in each titrated sample. The high KDR concentration and the overnight incubation limited the effect of Ab affinity, allowing quantitation of the relative amount of KDR-specific Ab present in each sample.
(In general: In an ELISA, binding on a coated surface is turned into a signal by an enzyme label.)

In assay [3] the target is T1, soluble KDR extracellular domain (ECD) …. Description: High Antigen ELISA, KDR coat 500 ng/mL, supernatant 1:75. On the procedure: as §1
For assay [4] the target is unchanged. The assay can be described thus: High Antigen ELISA, KDR coat 500 ng/mL, supernatant 1:225. On the procedure: as §1
The target is the same in assay [5]. The assay can be described thus: High Antigen ELISA, KDR coat 500 ng/mL, supernatant 1:675. On the procedure: as §1
Assay [6] has the same target. The assay can be described thus: High Antigen ELISA, KDR coat 500 ng/mL, supernatant 1:2025. On the procedure:
as §1

For assay [7] the target is unchanged. Description: High Antigen ELISA, KDR coat 500 ng/mL, supernatant 1:6075. On the procedure: as §1
For assay [8] the target is unchanged. Description: Limited Antigen ELISA, KDR coat 25 ng/mL, supernatant 1:25. On the procedure: (§2) Samples containing one concentration of antibody (Ab) (1:25 dilution) were incubated overnight to allow Ab binding to approach equilibrium. The low antigen concentration limited the effect of antibody concentration, allowing ranking of the antibodies based on their relative affinity.

For assay [9] the target is unchanged. Description: Limited Antigen ELISA, KDR coat 50 ng/mL, supernatant 1:25. On the procedure: as §2
The target is the same in assay [10]. The assay can be described thus: High Antigen ELISA, KDR coat 500 ng/mL, supernatant 1:18,225. On the procedure: as §1
For assay [11] the target is unchanged. The assay can be described thus: Limited Antigen ELISA, KDR coat 12.5 ng/mL, supernatant 1:25. On the procedure:
as §2

For assay [12] the target is unchanged. The assay can be described thus: Limited Antigen ELISA, KDR coat 6.25 ng/mL, supernatant 1:25. On the procedure:
as §2

The target is the same in assay [13]. The assay can be described thus: Limited Antigen ELISA, KDR coat 3.125 ng/mL, supernatant 1:25. On the procedure: as §2

T1 sequence (P35968 20-764): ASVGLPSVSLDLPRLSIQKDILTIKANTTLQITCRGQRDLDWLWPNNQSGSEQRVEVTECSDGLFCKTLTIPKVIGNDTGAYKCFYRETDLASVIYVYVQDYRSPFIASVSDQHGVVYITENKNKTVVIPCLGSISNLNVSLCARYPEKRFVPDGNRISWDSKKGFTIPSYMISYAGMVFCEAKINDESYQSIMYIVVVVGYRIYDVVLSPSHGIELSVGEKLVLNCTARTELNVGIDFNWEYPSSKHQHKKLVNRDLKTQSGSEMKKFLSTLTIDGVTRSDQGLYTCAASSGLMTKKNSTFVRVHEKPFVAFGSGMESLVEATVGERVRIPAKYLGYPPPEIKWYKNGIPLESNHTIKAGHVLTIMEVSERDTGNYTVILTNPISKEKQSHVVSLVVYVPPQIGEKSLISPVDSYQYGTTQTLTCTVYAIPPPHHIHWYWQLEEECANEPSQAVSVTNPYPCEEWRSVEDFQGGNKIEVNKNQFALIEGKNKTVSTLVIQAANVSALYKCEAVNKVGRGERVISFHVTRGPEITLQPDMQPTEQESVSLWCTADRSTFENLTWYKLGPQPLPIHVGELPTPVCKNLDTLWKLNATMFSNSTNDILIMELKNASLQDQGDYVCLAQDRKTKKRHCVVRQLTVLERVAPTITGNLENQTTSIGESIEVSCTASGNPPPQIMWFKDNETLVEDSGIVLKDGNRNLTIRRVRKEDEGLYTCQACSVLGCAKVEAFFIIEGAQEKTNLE
Sequence of KDR endogenously expressed on human umbilical vein endothelial cells (HUVEC) (P35968 20-1356): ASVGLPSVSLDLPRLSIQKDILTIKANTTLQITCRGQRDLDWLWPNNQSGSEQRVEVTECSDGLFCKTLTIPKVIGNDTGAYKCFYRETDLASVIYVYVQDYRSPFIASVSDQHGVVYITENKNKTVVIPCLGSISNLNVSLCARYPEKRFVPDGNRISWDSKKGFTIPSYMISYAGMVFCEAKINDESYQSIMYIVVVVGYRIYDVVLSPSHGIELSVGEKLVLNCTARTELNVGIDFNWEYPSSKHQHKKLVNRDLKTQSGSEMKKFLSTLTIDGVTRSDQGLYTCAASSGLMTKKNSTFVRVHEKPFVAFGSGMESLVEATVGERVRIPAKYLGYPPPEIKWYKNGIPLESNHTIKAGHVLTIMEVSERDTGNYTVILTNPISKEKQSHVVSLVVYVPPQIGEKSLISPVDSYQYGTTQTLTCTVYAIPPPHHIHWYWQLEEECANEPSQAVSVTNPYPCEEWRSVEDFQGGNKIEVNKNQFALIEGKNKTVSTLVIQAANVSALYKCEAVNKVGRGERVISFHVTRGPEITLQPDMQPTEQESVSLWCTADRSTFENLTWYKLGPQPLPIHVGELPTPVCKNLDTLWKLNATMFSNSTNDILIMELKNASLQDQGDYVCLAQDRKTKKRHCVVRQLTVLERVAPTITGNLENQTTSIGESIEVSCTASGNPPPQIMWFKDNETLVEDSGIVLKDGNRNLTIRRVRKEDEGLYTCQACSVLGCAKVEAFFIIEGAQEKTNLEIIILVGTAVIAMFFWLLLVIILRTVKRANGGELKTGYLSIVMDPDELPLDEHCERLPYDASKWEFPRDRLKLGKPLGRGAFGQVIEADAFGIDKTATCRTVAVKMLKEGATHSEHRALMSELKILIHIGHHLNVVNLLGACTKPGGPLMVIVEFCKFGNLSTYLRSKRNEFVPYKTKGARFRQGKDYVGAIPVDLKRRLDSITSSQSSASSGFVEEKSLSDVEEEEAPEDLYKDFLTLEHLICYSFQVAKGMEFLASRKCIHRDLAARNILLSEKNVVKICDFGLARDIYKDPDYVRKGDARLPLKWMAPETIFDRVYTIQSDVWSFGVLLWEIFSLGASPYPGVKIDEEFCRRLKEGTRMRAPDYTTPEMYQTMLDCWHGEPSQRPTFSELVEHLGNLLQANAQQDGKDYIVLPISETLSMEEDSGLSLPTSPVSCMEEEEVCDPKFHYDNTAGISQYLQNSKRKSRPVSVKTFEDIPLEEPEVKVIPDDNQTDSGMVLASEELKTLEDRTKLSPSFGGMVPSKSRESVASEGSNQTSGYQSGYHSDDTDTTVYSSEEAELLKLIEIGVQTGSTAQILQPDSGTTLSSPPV

B1: 29A3 (antibody, V domains shown)
VH: QVQLQESGPGLVKPSETLSLTCTVSGGSISSYFWSWIRQPAGKGLEWIGRIYFSGRTNYNPSLKSRVTMSVETSKNQFSLKLNSVTAADTAVYYCARDGGWNYDVAFDYWGQGTLVTVSS
VL: QAVLTQPSSLSASPGASASLTCTLRSGINVGTYRIYWYQQKPGSPPQYLLRYKSDSDQLQGSGVPSRFSGSKDASANAGILLISGLQSEDEADYYCMVWHSNTWVFGGGTKLTVL
notes: Fully human mAb from XenoMouse hybridoma, tested as hybridoma supernatant
B1: in assay [1], the “VEGF-E-mediated Survival % Inhibition (Average)” value is -10%. Further, the “VEGF-E-mediated Survival % Inhibition (n = 1)” value in assay [1] is -1%. Further, in assay [1], the “VEGF-E-mediated Survival % Inhibition (n = 2)” value was -20%. Further, the ELISA reading came out at 3.89 in [2]; 4.06 in assay [3]; 3.85 in assay [4]; 3.32 in assay [5]; 1.91 in assay [6]; 0.57 in [7]. Moreover, the ELISA reading was 1.13 in [8]; 2.27 in assay [9]; 0.24 in assay [10]; 0.49 in assay [11]; 0.27 in assay [12]; 0.16 in assay [13].

B2: 32B2 (antibody, V domains shown)
VH: EVQLLESGGGLVQPGGSLRLSCAASGFTFSNYAMSWVRQAPGKGLDWVSAISGRGGSTYYADSVKGRFTISRDNSKNTLFLLMNSLRAEDTAVYYCAKASGDDWGQGTLVTVSS
VL: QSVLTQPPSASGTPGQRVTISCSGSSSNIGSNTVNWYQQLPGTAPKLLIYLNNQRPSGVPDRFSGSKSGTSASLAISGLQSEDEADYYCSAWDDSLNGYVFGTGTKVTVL
notes: as for B1
Consider B2, for which the “VEGF-E-mediated Survival % Inhibition (Average)” value in assay [1] is -6%. Moreover, the “VEGF-E-mediated Survival % Inhibition (n = 1)” value in assay [1] was -2%. Besides, the “VEGF-E-mediated Survival % Inhibition (n = 2)” value in assay [1] is -9%. For the same molecule, the ELISA reading was determined as 6 in assay [2]; 6 in [3]; 6 in assay [4]; 6 in [5]; 3.33 in assay [6]; 1.54 in assay [7]. Moreover, the ELISA reading in assay [8] came to 1.69; in assay [9], 2.9; in assay [10], 0.8; in assay [11], 0.86; in [12], 0.42; in [13] it was 0.25.

B3: 29D4 (antibody, V domains shown)
VH: QLQLQESGPGLVKPSETLSLTCTVSGGSISSRSNYWGWIRQPPGKGLEWIGTIYYSGHTYYNPSLKSRVSISVDTSKNQFSLKLSSVTATDTALYYCARQQLVLYYFEYWGQGTLVTVSS
VL: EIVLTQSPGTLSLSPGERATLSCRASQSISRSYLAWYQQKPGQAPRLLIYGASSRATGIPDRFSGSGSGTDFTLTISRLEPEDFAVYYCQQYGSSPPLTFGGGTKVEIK
notes: as for B1
On to B3, for which the “VEGF-E-mediated Survival % Inhibition (Average)” value in [1] was found to be 66%. Moreover, the “VEGF-E-mediated Survival % Inhibition (n = 1)” value in assay [1] was determined as 64%. Further, in [1], the “VEGF-E-mediated Survival % Inhibition (n = 2)” value came to 67%. Further, the ELISA reading stood at 4.24 in [2]; 5.57 in assay [3]; 6 in [4]; 4.09 in assay [5]; 2.06 in [6]; 0.66 in assay [7]. Further, the ELISA reading stood at 1.87 in assay [8]; 3.31 in [9]; 0.25 in [10]; 0.8 in [11]; 0.41 in assay [12]; 0.23 in assay [13].

B4: 32F4 (antibody, V domains shown)
VH: QLQLQESGPGLVKPSGTLSLSCTVSGGSISSRSDYWGWIRQPPGKGLEWIGTIYYSGNTFYNPSLKSRVTISVDTSKKQFSLKLSSVTAADTAVYYCARQQLVLYYFDYWGQGTLVTVSS
VL: EIVLTQSPGTLSLSPGERATLSCRTSQSVSSSYLAWYQQKPGQAPRLLIYGASSRATGVPDRFSGSGSGTDFSLTISRLEPEDFAVYYCQQYGSSPPLTFGGGTKVEIK
notes: as for B1
On to B4, for which the “VEGF-E-mediated Survival % Inhibition (Average)” value in assay [1] is 64%. Besides, in [1], the “VEGF-E-mediated Survival % Inhibition (n = 1)” value was 64%. In [1], the “VEGF-E-mediated Survival % Inhibition (n = 2)” value was found to be 64%. The ELISA reading in [2] came to 4.79; in assay [3], 5.56; in [4] it was 6; in assay [5] it was 4.61; in assay [6] it was 2.71; in assay [7] it was 0.97. Also, the ELISA reading in [8] amounted to 1.09; in assay [9], 2.22; in assay [10], 0.5; in assay [11] it was 0.74; in [12] it was 0.36; in assay [13], 0.23.

B5: 29H3 (antibody, V domains shown)
VH: QVQLVQSGAEVKKPGASVKVSCKASGYTFTSYDINWVRQATGQGLEWMGWMNPNSGKTGYAQKFQGRVTMTRNTSINTAYMELSSLRSEDTAVYYCARGGYSNLGWFDPWGQGTLVTVSS
VL: DIQMTQSPSSVSASVGDRVTITCRASQGISSWLVWYHQKPGKAPKLLIYGASSLQSGVPSRFSGSGSGTDFTLTISSLQPEDFATYYCQQANNFPFTFGPGTKVDIK
notes: as for B1
Turning to B5, the “VEGF-E-mediated Survival % Inhibition (Average)” value in assay [1] is -15%. Also, the “VEGF-E-mediated Survival % Inhibition (n = 1)” value in assay [1] was -19%. Besides, the “VEGF-E-mediated Survival % Inhibition (n = 2)” value in assay [1] was -11%. In addition, the ELISA reading amounted to 4.52 in assay [2]; 4.96 in assay [3]; 4.29 in [4]; 2.83 in [5]; 1.42 in assay [6]; 0.47 in assay [7]. For the same molecule, the ELISA reading in assay [8] was found to be 1.03; in [9], 2.13; in [10] it was 0.21; in assay [11], 0.4; in assay [12], 0.24; in assay [13], 0.16.

B6: 29F7 (antibody, V domains shown)
VH: QVQLVQSGAEVKKPGASVKVSCKASGYTFTSYDINWVRQATGQGLEWMGWMNPNSGKTGYAQKFQGRVTMTRSTSISTAYMELSSLRSEDTAVYYCARGGYSNLGWFDPWGQGTLVTVSS
VL: DIQMTQSPSSVFASVGDRVTITCRASQGISTWLAWYQQKPGKAPKFLIYAASSLQSGVPSRFSGSGSGTDFTLTISSLQPDDFATYYCQQANNFPFTFGPGTKVDIK
notes: as for B1
In the case of B6, in assay [1], the “VEGF-E-mediated Survival % Inhibition (Average)” value turned out to be 11%. Also, in assay [1], the “VEGF-E-mediated Survival % Inhibition (n = 1)” value stood at 15%. In addition, the “VEGF-E-mediated Survival % Inhibition (n = 2)” value in assay [1] is 6%. The ELISA reading stood at 4.42 in [2]; 4.49 in assay [3]; 4.26 in [4]; 3.76 in [5]; 1.68 in assay [6]; 0.57 in [7]. Besides, the ELISA reading in assay [8] was found to be 2.19; in assay [9], 3.54; in assay [10], 0.22; in [11] it was 1; in assay [12] it was 0.51; in assay [13] it was 0.25.

B7: 33D5 (antibody, V domains shown)
VH: QVQLVQSGAEVKKPGASVKVSCKASGYTFGSYDINWVRQATGQGLEWMGWMNPNSGNTGYAQKFQGRVTLTRNTSIRTVYMELSSLRSEDTAVYYCARGGYSNLGWFDPWGQGSLVTVSS
VL: DIQMTQSPSSVSVSVGDRVTITCRASQGISSWLAWYQQKPGKAPKLLIYAASSLQSGVPSRFSGSGSGTDFTLTISSLQPEDFATYYCQQANSFPFTFGPGTKVDIK
notes: as for B1
On to B7, for which, in assay [1], the “VEGF-E-mediated Survival % Inhibition (Average)” value is 0%. Moreover, the “VEGF-E-mediated Survival % Inhibition (n = 1)” value in [1] was -2%. In addition, the “VEGF-E-mediated Survival % Inhibition (n = 2)” value in assay [1] is 2%. Besides, the ELISA reading came to 4.61 in [2]; 4.56 in assay [3]; 4.78 in assay [4]; 6 in assay [5]; 3.65 in [6]; 1.7 in assay [7]. Also, the ELISA reading in [8] is 2.2; in assay [9], 3.81; in assay [10] it was 0.87; in assay [11], 1.32; in assay [12] it was 0.61; in assay [13], 0.33.
